Results taken from patent publication US10919943B2, “Mutant proteins enabling agrochemical control of plant gene expression” (The Regents of the University of California, priority 2016, dated 2021).

How the values were obtained:
pMANDI-UAS-GFP-LEAFY = experiment: Mandipropamid induction of GFP-LEAFY in T1 leaf tissue, GFP fluorescence; type: in vivo, Arabidopsis; conditions: 10 μM mandipropamid, 24 hours; FIG. 15B
Text: To test the efficacy of our transcriptional circuit in planta, we constructed a 3 component system for inducing genes of interest using the mandipropamid mediated interaction of a BD-PYR1*/AD-HAB1* to drive genes of interest from a GAL4-responsive UAS (FIG. 15A). To do this we constructed a BD-PYR1*^-MANDI fusion protein and NLSSV40-VP64-HAB1*-N7 fusion protein and used these to drive gene expression from a synthetic UAS-minimal-35S promoter. To make the desired vector, the three required components were separately cloned into vectors that provided necessary elements (such as the Gal4 DNA binding domain, or 35S-promoter-nos-terminator cassettes). After this, the three components were combined into a plant binary transformation vector.
To combine all three components into a single vector, a 35S::NLS-VP64-HAB1*-N7-Nos-terminator cassette was PCR amplified from pVP64-HAB1*-N7 and cloned into pBD-PYR1* into its SacI site, upstream of the BD-PYR1* expression cassette, yielding pAD-BD. […]
Having developed a simple induction system, we tested it by examining the expression of the flowering regulator LEAFY. […] 24 hours after transfer, both tissues were examined using a GFP fluorescence dissecting scope and documented under identical camera and microscope settings (FIG. 15B).

HAB1 = experiment: In vitro PP2C assay, ligand-promoted inhibition of GST-HAB1 by receptor; type: biochemical, Arabidopsis; conditions: FIG. 9
Text: In the presence of ABA, wild type PYR1 binds to HAB1 and docks into its active site, which inhibits its enzymatic activity by blocking access of substrates. To characterize the orthogonal PYR1^! and HAB1^! interaction biochemically, we produced recombinant forms of each protein in E. coli, along with the wild type form, and tested the wild type and orthogonal mutant for their ability to inhibit HAB1 and HAB1^! activities in vitro. We cloned PYR1^! into pET28 to generate 6×-His tagged receptor and cloned HAB1^! into pGEX-4T-1 to create a GST-fusion protein. The previously constructed (S.-Y. Park et al., 2009) wild type 6×-His-PYR1 and GST-HAB1 constructs were used for producing recombinant wild type proteins. The 6×-His-tagged receptors and GST-tagged PP2Cs were expressed and purified as previously described. Briefly, the proteins were expressed in BL21 [DE3]pLysS E. coli host cells at 18° C. overnight. Fusion proteins were purified from sonicated lysates using Ni-NTA agarose (Qiagen, USA) or Pierce™ Glutathione Agarose (Thermo Scientific) according to the manufacturer's instructions. PP2C assays were conducted in 96-well polystyrene flat-bottom microtitre plates (Greiner). […] The plates were read using a Victor 2 plate reader (PerkinElmer) (355 nm excitation, 460 nm emission) and assays run in triplicate. The PP2C activity values reported are expressed as percent control values, which were calculated by including the carrier solvent (1% DMSO) and the specific receptor assayed, but no ligand. […]
According to our current understanding, in order for ABA signaling to be initiated in vivo, PP2C activity must be inhibited to enable accumulation of active SnRK2 kinases. […] 4-methylumbeliferyl phosphate was added (1 mM final concentration) was added to the reactions after 30 minutes equilibration and plates were read by fluorimetry. The PP2C activity values reported are expressed as percent control values, which was calculated by including the carrier solvent (1% DMSO) and the specific receptor assayed, but no ligand.

C#CCOc1ccc(CCNC(=O)C(OCC#C)c2ccc(Cl)cc2)cc1OC (stereo not drawn) [mandipropamid]
GFP-LEAFY induction (pMANDI-UAS-GFP-LEAFY): GFP-LEAFY induction in response to mandipropamid

B1: PYR1*^-MANDI: PYR1 mutant with 9 mutations, most sensitive to mandipropamid (protein, listed as Arabidopsis thaliana)
chain: MPSELTPEERSELKNSIAEFHTYQLDPGSCSSLHAQRIHAPPELVWSIVRRFDKPQTHRHFIKSCSVEQNFEMRVGCTRDIIVISGLPANTSTERLDILDDERRVTGASIIGGEHRLTNYKGVTTVHRFEKENRIWTVVLESYVVDMPEGNSEDDTRIVVDDVVKLNLQKLATVAEAMARNSGDGSGSQVT
inhibition of HAB1 enzymatic activity (HAB1; in response to ABA): does not inhibit | inhibition of wild type HAB1 enzymatic activity (HAB1; in response to mandipropamid, 100 nM receptor, 50 nM GST-HAB1): does not substantially inhibit
